The target of data set [1] is GFP-MTase (M.EcoKI DNA methyltransferase, M2S1 form, with enhanced green fluorescent protein fused to the C-terminus of HsdS) (E. coli) (UniProt P08957). Kind of data set: SEC; labelled mutant ocr proteins with GFP-MTase, size exclusion chromatography as previously described [14]; 20 or 25 °C, 20 mM Tris-HCl pH 8.0, 6 mM MgCl2, 7 mM 2-mercaptoethanol.
Data set [2] has as its target T1, GFP-MTase (M.EcoKI DNA methyltransferase, M2S1 form, with enhanced green fluorescent protein fused to the … (E. coli, UniProt P08957 1-529; P05719 1-464).
T1 construct: HsdM modification (MTase) subunit of the Type I R/M enzyme EcoKI, E. coli; its C-terminus is fused to the N-terminus of EGFP; Construct pJFMSEGFP derives from pJFMS [18] and pEGFP-N1; EGFP serves as the FRET donor; also called M.EcoKI fused to GFP; fusion protein; not shown: EGFP, C-terminal, kept; copies: 2 + 1
T1 sequence (looked up) 1: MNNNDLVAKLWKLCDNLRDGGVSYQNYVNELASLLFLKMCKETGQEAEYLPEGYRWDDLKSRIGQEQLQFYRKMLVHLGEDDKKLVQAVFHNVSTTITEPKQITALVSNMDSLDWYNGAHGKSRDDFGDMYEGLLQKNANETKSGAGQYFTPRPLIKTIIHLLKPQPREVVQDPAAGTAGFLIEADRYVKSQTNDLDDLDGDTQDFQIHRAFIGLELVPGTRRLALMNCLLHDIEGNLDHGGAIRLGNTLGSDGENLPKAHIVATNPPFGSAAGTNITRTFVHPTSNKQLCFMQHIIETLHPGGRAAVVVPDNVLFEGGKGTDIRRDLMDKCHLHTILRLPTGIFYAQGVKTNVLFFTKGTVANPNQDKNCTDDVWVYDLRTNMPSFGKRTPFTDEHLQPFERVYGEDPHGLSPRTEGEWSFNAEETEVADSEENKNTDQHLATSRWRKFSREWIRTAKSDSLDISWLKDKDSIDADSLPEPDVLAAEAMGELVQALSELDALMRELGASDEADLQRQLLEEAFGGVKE
T1 sequence (looked up) 2: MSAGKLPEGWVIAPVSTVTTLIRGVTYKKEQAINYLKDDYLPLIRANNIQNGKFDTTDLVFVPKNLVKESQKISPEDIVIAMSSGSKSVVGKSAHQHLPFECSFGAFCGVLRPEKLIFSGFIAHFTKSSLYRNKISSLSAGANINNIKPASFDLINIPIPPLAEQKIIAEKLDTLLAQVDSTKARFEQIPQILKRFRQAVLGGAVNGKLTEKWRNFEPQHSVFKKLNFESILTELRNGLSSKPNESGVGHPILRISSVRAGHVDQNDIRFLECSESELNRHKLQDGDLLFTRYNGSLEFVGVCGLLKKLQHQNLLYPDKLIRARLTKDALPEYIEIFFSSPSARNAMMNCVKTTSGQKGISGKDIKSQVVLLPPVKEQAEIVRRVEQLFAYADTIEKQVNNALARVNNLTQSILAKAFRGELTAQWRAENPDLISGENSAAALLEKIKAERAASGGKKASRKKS
The description is as above. The note with it: both partners purified.

Data set [3] has as its target T2, GFP-MTase (M.EcoKI M2S1 with EGFP fused to C-terminus of HsdS) (Escherichia coli? (EcoKI; expressed in …, UniProt P08957;P05719 1-529;1-464).
T2 sequence 1: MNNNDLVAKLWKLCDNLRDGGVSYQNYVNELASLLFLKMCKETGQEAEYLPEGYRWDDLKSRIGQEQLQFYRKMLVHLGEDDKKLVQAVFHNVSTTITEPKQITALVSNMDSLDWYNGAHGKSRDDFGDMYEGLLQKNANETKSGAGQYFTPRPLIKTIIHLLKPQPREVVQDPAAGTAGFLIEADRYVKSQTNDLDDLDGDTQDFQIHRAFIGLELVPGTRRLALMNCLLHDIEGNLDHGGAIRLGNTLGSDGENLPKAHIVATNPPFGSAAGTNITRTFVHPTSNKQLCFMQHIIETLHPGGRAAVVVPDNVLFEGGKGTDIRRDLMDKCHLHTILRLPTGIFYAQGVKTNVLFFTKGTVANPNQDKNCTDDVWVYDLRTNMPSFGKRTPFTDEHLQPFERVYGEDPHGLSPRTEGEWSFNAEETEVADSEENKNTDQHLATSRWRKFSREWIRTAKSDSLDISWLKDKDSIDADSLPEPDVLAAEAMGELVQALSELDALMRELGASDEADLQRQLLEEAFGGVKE
T2 sequence 2: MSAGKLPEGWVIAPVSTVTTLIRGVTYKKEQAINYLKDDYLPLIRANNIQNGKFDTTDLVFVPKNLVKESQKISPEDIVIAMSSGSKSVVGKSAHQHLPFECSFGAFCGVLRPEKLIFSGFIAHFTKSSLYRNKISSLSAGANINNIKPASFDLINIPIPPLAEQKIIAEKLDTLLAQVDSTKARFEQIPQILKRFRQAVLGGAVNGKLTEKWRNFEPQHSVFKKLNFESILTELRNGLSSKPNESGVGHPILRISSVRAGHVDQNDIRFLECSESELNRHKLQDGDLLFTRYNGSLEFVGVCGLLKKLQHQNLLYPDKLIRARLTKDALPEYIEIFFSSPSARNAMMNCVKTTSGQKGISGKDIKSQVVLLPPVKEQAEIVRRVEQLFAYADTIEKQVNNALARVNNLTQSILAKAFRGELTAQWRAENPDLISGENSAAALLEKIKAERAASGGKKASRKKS
Kind of data set: FRET continuous variation titration; no NaCl; 6 mM Mg2+; 1:1 complex; 20 mM Tris-HCl pH 8.0, 6 mM MgCl2, 7 mM 2-mercaptoethanol, NaCl 0-100 mM (0 for the Kd), 20 or 25 °C. The note with it: protein: recombinant; tags: EGFP-His6 at C-terminus of HsdS; chain copies: 2;1; label: 5'-HEX on top strand; blunt.

“Dylight549-labelled ocr E20C mutant protein (from UniProt P03775 1-117) (natural protein)”: the stoichiometry N (as a rule, a count of units in the complex or per binding partner) in data set [1] was 1. Regarding “Dylight549-labelled ocr S68C mutant protein (from UniProt P03775 1-117) (natural protein)”, the stoichiometry N in data set [1] worked out at 1.

B1: Dylight549-labelled ocr E117C mutant protein (natural protein, phage T7, UniProt P03775 1-117, looked up)
chain: MAMSNMTYNNVFDHAYEMLKENIRYDDIRDTDDLHDAIHMAADNAVPHYYADIFSVMASEGIDLEFEDSGLMPDTKDVIRILQARIYEQLTIDLWEDAEDLLNEYLEEVEEYEEDEC
modifications: Dylight549 maleimide on the introduced cysteine at 117 (labelling level 86.3%)
notes: gene 0.3 protein, ocr, from phage T7; one cysteine and so one acceptor label in each subunit; also called E117C ocr; E117E (as printed once); source: site directed mutagenesis and protein purification as described previously [17]
B1: in data set [2], the “stoichiometry N” value is 1.

B2: 21TH21B (dsDNA)
DNA 1: GCCTAACCACGTGGTGCGTAC
DNA 2: GTACGCACCACGTGGTTAGGC
As for B2, the Kd (as a rule, the equilibrium constant for the complex coming apart) in data set [3] amounted to 19 ± 7 nM.

The record behind these values is paper PMC2914225, “Fusion of GFP to the M.EcoKI DNA methyltransferase produces a new probe of Type I DNA restriction and modification enzymes” (Biochemical and Biophysical Research Communications, 2010).
